Source: patent US11419921B2, “Methods of treating neurological disorders” (EnClear Therapies, Inc., priority 2018, dated 2022)

Tests used:
Type in all cases: biochemical
(GR)10 [1] = experiment: (GR)10 digestion with immobilized proteases in human cerebrospinal fluid (CSF); conditions: immobilized enzyme
Description: (§1) Protease solutions were prepared at 2 mg/mL in sterile PBS with calcium, magnesium and 200 μL ([…]) were applied to 100 μL of pre-washed NHS-activated agarose resin in 0.8 mL centrifuge columns. Reactions were left 1.5 hour at room temperature with end-to-end mixing, after which resins were washed with 12 resin volumes of PBS. Unreacted sites were blocked with 500 μL of 1M ethanolamine for 15 minutes at room temperature and resins were further washed with 24 resin volumes. Resins were stored at 4 degrees in 500 μL of PBS containing 0.05% sodium azide as preservative.
200 μM of (GR)10 were diluted in human cerebrospinal fluid (CSF) and 400 μL were applied to each immobilized proteases. The reaction was incubated 5 minutes at room temperature with end-to-end mixing. Columns were spun down 1 minute at 1,000 Xg to recover digested GR dipeptides. Columns were washed with 12 resin volumes of PBS. The procedure was repeated with 60 minutes digestion time. 100 μL of each samples were transferred to a clean tube, flash-frozen and subsequently used for LC/MS quantification of GR repeats of different lengths. The remaining 300 μL of each samples were flash-frozen and used to assess neuron toxicity.
(GR)10 was digested with exemplary immobilized enzymes as described above in the subsection titled “(GR)10 digestion with immobilized proteases in CSF” of Example 3. Clostripain experiments were conducted with and without DTT activation (no DTT during digestion). The results obtained after 5 and 60 minutes of reaction time are presented in Table 25 and shown in FIG. 5 (commercial and in-house immobilized trypsin), FIG. 6 (immobilized elastase, FIG. 7A (immobilized clostripain without DTT) and FIG. 7 (immobilized clostripain with 2.5 mM DTT).

(GR)10 [2] = experiment: (GR)10 digestion with immobilized proteases (NHS-activated agarose resin) in PBS; conditions: immobilized
Description: as §1
110 μL of 50 μM (GR)10 dipeptide repeats prepared in PBS were added to each immobilized protease and incubated 5 minutes at room temperature with end-to-end mixing. Columns were spun down 1 minute at 1,000 Xg to recover digested GR dipeptides. Columns were washed with 110 μL of PBS to increase (GR)10 recovery. This procedure was repeated with 60 minutes digestion time. 100 μL of each samples were transferred to a new tube and 5 μL of 10% TFA followed by 300 μL of Dilution Solution were added. The reaction mixtures were analyzed by LC/MS to determine the concentration of GR repeats of different lengths.

(GR)10 [3] = experiment: Cleavage of (GR)10 by enzymes in solution (PBS with CaCl2 and MgCl2), LC/MS of GR repeats; conditions: in solution, activated with 2.5 mM DTT
Description: • (GR)10 dipeptide (also (GR)8, (GR)6, (GR)4, (GR)2) were synthetized by solid-phase synthesis by CanPeptide; All peptides are uncapped and supplied lyophilized with TFA as counter ions. Purity was always above 95%. • Buffer: PBS buffer containing CaCl2 and MgCl2. • Stock solution of enzyme (e.g., 10 mg/mL) (prepared per manufacturer instructions) in PBS. Activators added as necessary. • Working solution of protein of the desired concentration (e.g., 100 μg/mL) prepared immediately before use by diluting the stock solution (e.g., 5 μL of 10 mg/mL stock solution) in PBS buffer (e.g., in 495 μL of PBS). Exemplary Procedure Using 50 μM Concentrations of (GR)10
25 μL of a 100 μM solution of (GR)10 was added to each well of a 96-well plate. 25 μL of a solution of enzyme (two times the desired final enzyme concentration) was added, and the plates were incubated at room temperature. At the specified time points (5 minutes, 10 minutes, 30 minutes, 60 minutes, and 180 minutes) 2.5 μL of a 10% TFA solution were added to stop the reaction. For the time 0 min well, the TFA was added to the well before addition of the enzyme. After last time point, all samples were further diluted with 150 μL of dilution solution. The quenched reaction mixtures were analyzed by LC/MS to determine the concentration of GR repeats of different lengths.
The chromatography and mass spectrometry conditions utilized are shown in Table 2 and Table 3, respectively.

[4] = 2.5 mM DTT, resin wash from 5 min reaction
[5] = 2.5 mM DTT, resin wash from 60 min reaction
[6] = activated with 2.5 mM DTT, 5 min reaction
[7] = activated with 2.5 mM DTT, 60 min reaction

B1: Clostripain + DTT (protein)
chain: NKNQKVTIMYYCDADNNLEGSLLNDIEEMKTGYKDSPNLNLIALVDRSPRYSSDEKVLGEDFSDTRLYKIEHNKANRLDGKNEFPEISTTSKYEANMGDPEVLKKFIDYCKSNYEADKYVLIMANHGGGAREKSNPRLNRAICWDDSNLDKNGEADCLYMGEISDHLTEKQSVDLLAFDACLMGTAEVAYQYRPGNGGFSADTLVASSPVVWGPGFKYDKIFDRIKAGGGTNNEDDLTLGGKEQNFDPATITNEQLGALFVEEQRDSTHANGRYDQHLSFYDLKKAESVKRAIDNLAVNLSNENKKSEIEKLRGSGIHTDLMHYFDEYSEGEWVEYPYFDVYDLCEKINKSENFSSKTKDLASNAMNKLNEMIVYSFGDPSNNFKEGKNGLSIFLPNGDKKYSTYYTSTKIPHWTMQSWYNSIDTVKYGLNPYGKLSWCKDGQDPEINKVGNWFELLDSWFDKTNDVTGGVNHYQW
(GR)10 [1]; 5 min reaction
  (GR)1 (normalized uM): 79.8 µM
  (GR)2 (normalized uM): 83.2 µM
  (GR)3 (normalized uM): 70.5 µM
  (GR)4 (normalized uM): 90.8 µM
  (GR)5 (normalized uM): 90.5 µM
  (GR)6 (normalized uM): 86.4 µM
  (GR)8 (normalized uM): 64.8 µM
  (GR)10 (normalized uM): 58 µM
(GR)10 [1]; 60 min reaction
  (GR)1 (normalized uM): 458.3 µM
  (GR)2 (normalized uM): 409.2 µM
  (GR)3 (normalized uM): 85.5 µM
  (GR)4 (normalized uM): 21.2 µM
  (GR)5 (normalized uM): 3 µM
  (GR)6 (normalized uM): 0 µM
  (GR)8 (normalized uM): 0 µM
  (GR)10 (normalized uM): 0 µM
(GR)10 [2]; [4]
  (GR)1 (normalized to GR concentration): 99.1 µM
  (GR)2 (normalized to GR concentration): 0.0 µM
  (GR)3 (normalized to GR concentration): 0.0 µM
  (GR)4 (normalized to GR concentration): 0.0 µM
  (GR)5 (normalized to GR concentration): 0.0 µM
  (GR)6 (normalized to GR concentration): 0.0 µM
  (GR)8 (normalized to GR concentration): 0.0 µM
  (GR)10 (normalized to GR concentration): 0.0 µM
(GR)10 [2]; [5]
  (GR)1 (normalized to GR concentration): 125.6 µM
  (GR)2 (normalized to GR concentration): 0.0 µM
  (GR)3 (normalized to GR concentration): 0.0 µM
  (GR)4 (normalized to GR concentration): 0.0 µM
  (GR)5 (normalized to GR concentration): 0.0 µM
  (GR)6 (normalized to GR concentration): 0.0 µM
  (GR)8 (normalized to GR concentration): 0.0 µM
  (GR)10 (normalized to GR concentration): 0.0 µM
(GR)10 [2]; [6]
  (GR)1 (normalized to GR concentration): 299.3 µM
  (GR)2 (normalized to GR concentration): 0.0 µM
  (GR)3 (normalized to GR concentration): 0.0 µM
  (GR)4 (normalized to GR concentration): 0.0 µM
  (GR)5 (normalized to GR concentration): 0.0 µM
  (GR)6 (normalized to GR concentration): 0.0 µM
  (GR)8 (normalized to GR concentration): 0.0 µM
  (GR)10 (normalized to GR concentration): 0.0 µM
(GR)10 [2]; [7]
  (GR)1 (normalized to GR concentration): 335.6 µM
  (GR)2 (normalized to GR concentration): 0.0 µM
  (GR)3 (normalized to GR concentration): 0.0 µM
  (GR)4 (normalized to GR concentration): 0.0 µM
  (GR)5 (normalized to GR concentration): 0.0 µM
  (GR)6 (normalized to GR concentration): 0.0 µM
  (GR)8 (normalized to GR concentration): 0.0 µM
  (GR)10 (normalized to GR concentration): 0.0 µM
(GR)10 [3]; 5 min reaction
  (GR)1 (normalized to GR concentration): 86.8 µM
  (GR)2 (normalized to GR concentration): 113.6 µM
  (GR)3 (normalized to GR concentration): 40.5 µM
  (GR)4 (normalized to GR concentration): 27.2 µM
  (GR)5 (normalized to GR concentration): 12.1 µM
  (GR)6 (normalized to GR concentration): 7.3 µM
  (GR)8 (normalized to GR concentration): 0.0 µM
  (GR)10 (normalized to GR concentration): 5.7 µM
(GR)10 [3]; 60 min reaction
  (GR)1 (normalized to GR concentration): 387.0 µM
  (GR)2 (normalized to GR concentration): 0.0 µM
  (GR)3 (normalized to GR concentration): 0.0 µM
  (GR)4 (normalized to GR concentration): 0.0 µM
  (GR)5 (normalized to GR concentration): 0.0 µM
  (GR)6 (normalized to GR concentration): 0.0 µM
  (GR)8 (normalized to GR concentration): 0.0 µM
  (GR)10 (normalized to GR concentration): 0.0 µM
